# Article PMC7568338 (Proceedings of the National Academy of Sciences of the …, 2020)
# B1: ^D645CClpA (enzyme, E. coli, UniProt P0ABH9 1-749, looked up)
# chain: MLNQELELSLNMAFARAREHRHEFMTVEHLLLALLSNPSAREALEASSVDLVALRQELEAFIEQTTPVLPASEEERDTQPTLSFQRVLQRAVFHVQSSGRNEVTGANVLVAIFSEQESQAAYLLRKHEVSRLDVVNFISHGTRKDEPTQSSDPGSQPNSEEQAGGEERMENFTTNLNQLARVGGIDPLIGREKELERAIQVLSRRRKNNPLLVGESGVGKTAIAEGLAWRIVQGDVPEVMADSTIYSLDIGSLLAGTKYRGDFEKRFKALLKQLEQDTNSILFIDEIHTIIGAGAASGGQVDAANLIKPLLSSGKIRVIGSTTYQEFSNIFEKDRALARRFQKIDITEPSIEETVQIINGLKPKYEAHHDVRYTAKAVRAAVELAVKYINDRHLPDKAIDVIDEAGARARLMPVSKRKKTVNVADIESVVARIARIPEKSVSQSDRDTLKNLGDRLKMLVFGQDKAIEALTEAIKMARAGLGHEHKPVGSFLFAGPTGVGKTEVTVQLSKALGIELLRFDMSEYMERHTVSRLIGAPPGYVGFDQGGLLTDAVIKHPHAVLLLDEIEKAHPDVFNILLQVMDNGTLTDNNGRKADFRNVVLVMTTNAGVRETERKSIGLIHQDNSTDAMEEIKKIFTPEFRNRLCNIIWFDHLSTDVIHQVVDKFIVELQVQLDQKGVSLEVSQEARNWLAEKGYDRAMGARPMARVIQDNLKKPLANELLFGSLVDGGQVTVALDKEKNELTYGFQSA
# B2: ^Q709CClpA (enzyme, E. coli, UniProt P0ABH9 1-749, looked up)
# chain: MLNQELELSLNMAFARAREHRHEFMTVEHLLLALLSNPSAREALEASSVDLVALRQELEAFIEQTTPVLPASEEERDTQPTLSFQRVLQRAVFHVQSSGRNEVTGANVLVAIFSEQESQAAYLLRKHEVSRLDVVNFISHGTRKDEPTQSSDPGSQPNSEEQAGGEERMENFTTNLNQLARVGGIDPLIGREKELERAIQVLSRRRKNNPLLVGESGVGKTAIAEGLAWRIVQGDVPEVMADSTIYSLDIGSLLAGTKYRGDFEKRFKALLKQLEQDTNSILFIDEIHTIIGAGAASGGQVDAANLIKPLLSSGKIRVIGSTTYQEFSNIFEKDRALARRFQKIDITEPSIEETVQIINGLKPKYEAHHDVRYTAKAVRAAVELAVKYINDRHLPDKAIDVIDEAGARARLMPVSKRKKTVNVADIESVVARIARIPEKSVSQSDRDTLKNLGDRLKMLVFGQDKAIEALTEAIKMARAGLGHEHKPVGSFLFAGPTGVGKTEVTVQLSKALGIELLRFDMSEYMERHTVSRLIGAPPGYVGFDQGGLLTDAVIKHPHAVLLLDEIEKAHPDVFNILLQVMDNGTLTDNNGRKADFRNVVLVMTTNAGVRETERKSIGLIHQDNSTDAMEEIKKIFTPEFRNRLDNIIWFDHLSTDVIHQVVDKFIVELQVQLDQKGVSLEVSQEARNWLAEKGYDRAMGARPMARVICDNLKKPLANELLFGSLVDGGQVTVALDKEKNELTYGFQSA
# Molecular target: the molecule itself
# Test: SEC
row,Protein,binding result
1,B1,binds
2,B2,binds
